# Measurements: paper doi:10.1101/2024.06.27.600973
# Biological target: NY-ESO-1 peptide on HLA-A*02:01 (human)
# Test: data from [38–40]
substance,measurement,value
1G4,Kd,10 µM
